Here are results for 83 variants from the RNAGym collection of RNA variant scans (doi:10.1093/molbev/msab373).

The chains are these.
B1: Azoarcus group I ribozyme (parent)
chain: GUGCCUUGCGCCGGGAAACCACGCAAGGGAUGGUGUCAAAUUCGGCGAAACCUAAGCGCCCGCCCGGGCGUAUGGCAACGCCGAGCCAAGCUUCGGCGCCUGCGCCGAUGAAGGUGUAGAGACUAGACGGCACCCACCUAAGGCAAACGCUAUGGUGAAGGCAUAGUCCAGGGAGUGGCGAAAGUCACACAAACCGG

In this series the parent is B1. The experiment in a line: reverse-splicing fitness (ratio to wild type); higher = more active; in vitro selection; Mg2+ level not given. A digest of the protocol: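 An in vitro group I ribozyme library with randomized positions was T7-transcribed and gel-purified. In triplicate, 10 pmol RNA in EPPS pH 7.5 was reacted with 50 pmoles of a 30-nt RNA substrate for 1 h at 37 °C across several added MgCl2 levels (1–48 mM), then stopped with EDTA. Products were reverse transcribed from a substrate-complementary primer, PCR-amplified and sequenced (HiSeq 4000). Fitness is a variant's read proportion after selection over that before, normalised to wild type.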
As to C82G A111C A145U C150U C169G U176A, the reverse-splicing fitness is 0.0124. The value for C82G A111G A120G A145U C169G was 0.0203; that for C82U A111U A120G A145G C150G was 0.00732.

In the case of C82U C150A, the reverse-splicing fitness came to 0.0698.

For A111C A120G A145C C150A C169A U176C, the reverse-splicing fitness turned out to be 0.00698.

On to C82U A111U A120U C150A C169G U176G, for which the reverse-splicing fitness worked out at 0.0026. With C82G A111U A120C A145G C150U C169U U176C, the reverse-splicing fitness is 0.0146. With C82U A111G A120C A145U C169A the figure was 0.00556; with C82A A111C A145G C150A, 0.0316; with A120U C150A C169G U176C, 0.0141.

Turning to C82U A111G A145U C150U C169G U176A, the reverse-splicing fitness came to 0.0118. With C82A A120G A145G C150U C169U U176C the figure was 0.0172; with C82G A111C A120C, 0.0556; with C82U A111C A120G A145G C150A C169U U176A, 0.0158.

For C82G A111U A120G A145U C150A C169A U176A, the reverse-splicing fitness was determined as 0.0161. With A111G A120U A145C C150U C169G U176A the figure was 0.00436; with C82G A111C A120C C150U U176G, 0.00767. As for A111C A120U A145U C150U C169G U176A, the reverse-splicing fitness is 0.00509. With A111G A120G A145U C150A C169A, the reverse-splicing fitness was determined as 0.018.

In the case of A111U A120C C169G U176C, the reverse-splicing fitness came out at 0.0168. With A111C A120U A145G C150A C169G, the reverse-splicing fitness was 0.0103. In the case of A111U A145U C150A C169G U176C, the reverse-splicing fitness was 0.0169. Turning to C82U A120U A145G C150G C169U U176G, the reverse-splicing fitness was 0.00348. For C82U A111C A120U A145U C150A U176G, the reverse-splicing fitness was determined as 0.00247.

On to C82U A111C A120C C150U U176C, for which the reverse-splicing fitness was 0.0168. With C82A A120G A145G U176G, the reverse-splicing fitness was determined as 0.00561. The value for C82A A111C A120U A145U C169U U176G was 0.002; that for A111U A145C C150U U176G was 0.189. With A111U A120U A145G C150G C169G U176C the figure was 0.00495. The value for C82G A111U A120U A145C U176A was 0.00848; that for A111C A120G A145G C150U C169A U176A was 0.0192.

For A111C A120G C150U C169U U176C, the reverse-splicing fitness was determined as 0.0371. Regarding C82A A111C A120C A145G C150G C169A U176A, the reverse-splicing fitness came out at 0.0153. With C82A A111C A120G C150G C169A U176C the figure was 0.00996; with C82U A111G A145G C150U C169G U176A, 0.0169; with C82G A111U A120G C169U U176A, 0.0197. With C82A A111U A120U A145G C150G U176G the figure was 0.00434. The value for C82A A111U A120U A145G C150G U176C was 0.00894. C82U A120U A145C C169A: the reverse-splicing fitness was found to be 0.00174. For the variant C82G A120C A145G C150A C169U U176A, the reverse-splicing fitness amounted to 0.0145.

On to C82U A111U A120U A145G C150A C169G U176C, for which the reverse-splicing fitness came to 0.0045.

Turning to C82U A120U C150U C169U, the reverse-splicing fitness amounted to 0.00548.

On to C82G A111G A120U A145G C150A C169U U176A, for which the reverse-splicing fitness is 0.00563.

As for A111C A120U C150A C169U U176G, the reverse-splicing fitness came out at 0.00274. With C82A A120G A145U C150A C169G U176C the figure was 0.0154; with C82U A145C C169A U176G, 0.00383. The value for C82U A111C A120U C150G C169G was 0.00621; that for C82U A111G C169A U176G was 0.00438. Turning to A111C A120C A145U C150U U176G, the reverse-splicing fitness was found to be 0.0336. The value for C82G A111U A120U A145C C169A was 0.00222; that for C82G A111U A120C A145C C169G U176A was 0.0301. The value for A111C A120G A145G C150A C169U U176C was 0.0241; that for C82A A111C A145U C169G was 0.0101. For the variant C82A A111G A120C U176A, the reverse-splicing fitness stood at 0.0208. Regarding C82U A111G A120C A145G U176A, the reverse-splicing fitness turned out to be 0.0202. In the case of C82G A111C A120C A145C C150A C169A U176C, the reverse-splicing fitness stood at 0.00933. With C82A A111G A145C C169A U176G the figure was 0.00582.

Take C82A A111G A120C A145G C150A C169U: the reverse-splicing fitness is 0.00999. With A111U A120U A145G C150G U176G the figure was 0.00387; with C82U A120C C150A C169A U176A, 0.0169; with C82U A145G C150A C169G U176A, 0.0162. For the variant C82G A111G A120G A145G C150G C169A, the reverse-splicing fitness came out at 0.00957. With C82A A111U A120U A145U U176C, the reverse-splicing fitness was 0.0117. Take C82A A120U A145C C150G C169G U176A: the reverse-splicing fitness worked out at 0.00256. The value for C82G A111U A120C A145G C169G was 0.00963.

As to A111U A120G C150U C169G U176C, the reverse-splicing fitness stood at 0.0391. Consider C82G A111G A120C A145U C150A U176G, for which the reverse-splicing fitness stood at 0.00773.

Turning to C82A A111G A145U C169U, the reverse-splicing fitness worked out at 0.0125. With C82U A120C A145C C169A U176A the figure was 0.00575. The value for C82G A111C A120G A145U C150A was 0.00783; that for C82U A111C A120C A145C C150G C169G U176G was 0.00552.

With C82U A120C A145U C150A U176G, the reverse-splicing fitness is 0.00478. With A111C A120C A145C the figure was 0.556. With C82U A111G A145G C150G C169U the figure was 0.00891; with C82A A111U A120C A145C C169A, 0.0103; with C82U A120G A145G C150A U176C, 0.0182. The value for C82U A111U A145G C150G U176A was 0.0103; that for C82G A111G A120C A145C C150A C169U was 0.00986; that for C82A A111C A145G C150G C169U U176G was 0.00666. With C82A A111G A120G A145G C150U C169U U176A, the reverse-splicing fitness is 0.0182. With C82U A111G A120G A145G C150U U176G the figure was 0.00622; with C82A A111C A120G C150G C169G U176A, 0.00664. With C82G A111U C150G C169U the figure was 0.0102.
